Target: T1, RIG-I (ΔCARDs 1-238) (human, UniProt O95786 239-925, del1-238)
T1 sequence: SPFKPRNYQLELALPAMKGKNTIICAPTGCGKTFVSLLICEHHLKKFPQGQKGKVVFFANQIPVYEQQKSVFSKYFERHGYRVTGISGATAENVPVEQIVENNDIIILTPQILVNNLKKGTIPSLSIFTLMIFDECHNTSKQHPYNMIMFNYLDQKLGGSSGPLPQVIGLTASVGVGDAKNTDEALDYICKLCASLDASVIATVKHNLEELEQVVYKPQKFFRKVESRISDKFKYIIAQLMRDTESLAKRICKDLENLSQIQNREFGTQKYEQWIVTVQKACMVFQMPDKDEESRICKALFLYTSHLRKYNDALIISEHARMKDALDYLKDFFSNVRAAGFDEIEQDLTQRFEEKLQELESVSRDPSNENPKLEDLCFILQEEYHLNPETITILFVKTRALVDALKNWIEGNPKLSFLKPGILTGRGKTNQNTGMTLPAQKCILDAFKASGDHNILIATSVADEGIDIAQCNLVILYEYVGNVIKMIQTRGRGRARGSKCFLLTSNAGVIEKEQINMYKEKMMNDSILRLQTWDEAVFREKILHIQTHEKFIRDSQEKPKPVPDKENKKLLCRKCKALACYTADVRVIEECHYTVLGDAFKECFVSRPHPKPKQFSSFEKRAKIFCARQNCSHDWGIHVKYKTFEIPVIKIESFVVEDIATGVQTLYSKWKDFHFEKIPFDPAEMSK
Assay: X-ray crystallography

Binder: GGCGCGGCUUCGGCCGCGCC (structured_RNA, 5' triphosphate) [5'ppp8L]
- binding result: binds

Source: paper PMC3515076
